Results published in patent publication US7285395B2, “Stearoyl-CoA desaturase 4 gene” (Wisconsin Alumni Research Foundation, priority 2004, dated 2007).

What was measured:
Assay type in all cases: in vivo, mouse
mSCD2 = assay: quantitative RT-PCR of mSCD2 mRNA in hearts of leptin-treated ob/ob mice; conditions: heart of leptin-treated ob/ob mice, 12 days
Description: (§1) A, SCD activity: Microsomes were prepared from hearts of PBS-treated, ob/ob, ob/ob pair-fed (PF), and leptin-treated (ob/ob-Leptin) mice, and SCD enzyme activity was determined by measuring the incorporation of radioactivity in oleoyl-CoA using [1-^14C]stearoyl-CoA as a substrate. The reaction products were separated by TLC, and the radioactivity was quantitated. Each value represents the mean±S.E. (n=4). B, Levels of monounsaturated fatty acids in the hearts of ob/ob mice: Total fatty acids were extracted from heart of ob/ob mice treated with either leptin or PBS and wild type controls quantitated by GLC as described in the example below. *, p<0.05 versus wt-PBS; #,p<0.05 versus ob/ob-PBS. C, Total RNA was prepared from hearts of PBS or leptin-treated ob/ob mice and used to measure SCD1, SCD2, and SCD4 mRNA levels by quantitative RT-PCR analysis. The fold change relative to that of wild type was calculated after correction for the levels of cyclophilin used as a standard. Each value represents the mean±S.E. (n=4).
(§2) Subcutaneous Leptin Treatment—ob/ob mice were individually caged and allowed to acclimate for a number of days prior to the start of the experiment. […] Body mass and food intake were measured daily. […]

mSCD1 = assay: quantitative RT-PCR of mSCD1 mRNA in hearts of leptin-treated ob/ob mice; conditions: heart of leptin-treated ob/ob mice, 12 days
Description: as §1, §2

ob/ob mice = assay: monounsaturated fatty acid content of hearts of leptin-treated ob/ob mice by GLC; conditions: leptin treatment, GLC of total fatty acids
Description: as §1, with “standard. […]” for “standard. Each value represents the mean±S.E. (n=4).”
as §2
ob/ob mice have a mutation in the leptin gene and are a model of obesity, insulin resistance, and diabetes. […] To determine which SCD isoform(s) accounted for these effects, we measured RNA levels of mSCD1, mSCD2, and mSCD4. […]

B1: leptin: recombinant mouse leptin (Amgen, Thousand Oaks, Calif.) (protein, UniProt P41160 22-167, looked up)
Leptin: VPIQKVQDDTKTLIKTIVTRINDISHTQSVSAKQRVTGLDFIPGLHPILSLSKMDQTLAVYQQVLTSLPSQNVLQIANDLENLRDLLHLLAFSKSCSLPQTSGLQKPESLDGVLEASLYSTEVVALSRLQGSLQDILQQLDVSPEC
- expression of mSCD2 isoform (mSCD2): unchanged
- expression of mSCD1 isoform (mSCD1): unchanged
- 18:1 content of heart (ob/ob mice): reduced to levels comparable with those in wild type mice
